Our source for the median enrichment values is the supplement of paper PMC11502859.
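Note: lentiviral eGFP-IRES-mCherry reporter pool sorted by FACS 96 h post-transduction, gated on mCherry-high cells, Illumina read counts normalized per million, median across four biological replicates.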

This series deals with HEK293T. Put plainly: median enrichment of reporter reads in eGFP-reduced (low/intermediate) vs eGFP-high sorted cells (eGFP-extension fusion abundance) (ratio); higher = stronger loss of eGFP-fusion protein abundance (more destabilising extension).
With “RKFLLNISVGSCYQNFGYDFLGSVYFGCILNYGNGIYLLLTVNLFF [CCDC181]”, the median enrichment is 5.89.
In the case of RKGGSYSQAAM [HLA-G] it was 0.441.
Consider “RKINYTFYSPPEDHCPKAGSICSNNAAFTSSVHLCS [OR4M1]”, for which the median enrichment amounted to 10.5.
As for RKLLP [NOX4], the median enrichment turned out to be 0.64.
The value for “RKPLNVRNVGRPFNIITNFMDIIDFIFVRTLMNVKDVGNALPVVETLEYIREFILVRNHINVKNVGKPLVIVQTC [ZNF780B]” was 7.09.
As for RKSNASRLSEA [VHLL], the median enrichment came out at 0.269.
On to RKTWPENPQVLQRKTELGKGESWKDGAD [ABHD15], for which the median enrichment turned out to be 1.61.
RKWNS [GCSH]: the median enrichment was 0.655.
The value for RLAACLRNPAFFRR [MAPK10] was 12.2; that for RLEPV [TMEM87B] was 0.479.
RLHRNCW [OR2Z1]: the median enrichment was found to be 3.02.
In the case of “RLHTCMLSPRGNGLYIAHFTLFRRHFIPALVLLEGLSRQSSSCSASVCDSPPSTPMALSLGDSSSPRKEGGVAEDLQPWPRGA [PRKAB1]” it was 7.16; in that of RLLTHRHNLGH [MMP19], 8.57; in that of RLMW [KRTAP13-3], 3.36.
As to RLNICSVLKLMCFVGV [FBXL4], the median enrichment was found to be 10.3.
In the case of RLPAAQKNFALSFPVLFHTQKDPRKPVFNM [NR3C2] it was 3.55; in that of RLQSVVLVPLSQCRLVFLHILSMA [CDC16], 7.48.
Take “RLSTGPLHTISLIYVPSTLPQISGSGPGTWEGTGVRGCMGALAAPGSVVGRKLWKL [LRRC73]”: the median enrichment came to 6.15.
For the substance “RLVIFFQRVMQSGYKRIFCLPYKGILPAAKFKQ [ARMC10]”, the median enrichment was 14.7.
The value for “RLWSRHPAEWGPRGCQLGALPLAATLWSGRVLHHQEDPILSSVSCPSCCGMLSTEPTAHLPLHLPESVSICNKRQPRLPRAVS [INAFM1]” was 3.36.
As for RLYRLRR [ST3GAL6], the median enrichment is 10.7.
Regarding RMKSTASE [SERPINI2], the median enrichment came out at 0.64.
In the case of RMLEAFIHL [ZNF248] it was 1.59; in that of RMNTCQE [OR52N4], 0.48.
Turning to “RMSSFIRIWALSSFFSTHFPLPGPPLIQMPPSDSSWKPFLQLGQYDF [MSANTD2]”, the median enrichment was 33.9.
RNCMKKIKSSKMALVTIKKL [CXorf41]: the median enrichment was 2.73.
In the case of RNEYMTGNNGDCL [CTPS2] it was 0.464; in that of “RNHKEPSVPVHEISLLLENRNIDYQITMQLKPYCFFEQLFIPVIKTDCAEYSKRSEIGVYNYIFSDAIY [RPE]”, 8.87; in that of RNKKFWVLSS [RGCC], 1.68.
The value for RNLNGHYKLSNST [ARMC4] was 1.99.
The value for “RNQVASCPLLRGNPRPLASLPTYKALSQGIAGPRCLDPGCASPSLCSPWKGR [HSPBP1]” was 7.21; that for RNRGLNVFRVRMP [PARD6B] was 4.57.
On to “RPCAEALPGFTQLMDSSVLTLSTTPFTSLFDFRSYRHCLR [GINS1]”, for which the median enrichment came out at 7.78.
The value for “RPETECQPKESSCKTVIYCEYLHHMGSLMVNIFLQSC [TXK]” was 12.5; that for “RPGAQPCAAEDSRDWRRPRPATAGARGHLPGLLTLSPHWEWAPRGRASAVAASAPGRAGPPRGPVLVFCRRTQPPPIPDSSLG [TMUB1]” was 6.53; that for RPLLRVCPAPFHQ [DYRK4] was 1.43.
The value for “RPPAPNSIIYYGAAPPGWPDPWALGLWILVPCLENSPPLAPHCSL [CYTH2]” was 8.4.
The value for RPPLSPECNKHQIPCVK [POLR2I] was 3.52; that for “RPQMAGTCSSDERVLRRTPPSSVLEAGRLGSRRGQRHLLSVLGCKQLCVSGDTSHHVPGN [AIRE]” was 7.82; that for RPRPGPALPPGAPTCNKCSEAGK [CYBA] was 0.134.
As for “RPSGPPLPLGQGNQLLRDFSCLEGAVIAPPHCPTVLLGL [FBXW4]”, the median enrichment was determined as 4.69.
In the case of RPSTKGPPSWCSITSFLKGISFFTTLS [FANCE] it was 13.8; in that of RPSTVPGP [HYKK], 0.522; in that of “RPWPRAQACLGWALPLTTQGGPGPLGFLPWGQQPPAGLVGSGFLDFLMKRGYL [KCNH4]”, 4.41.
In the case of RQADEGATLTQSPQKAKCDSQVSSLTQR [PCARE] it was 0.302; in that of “RQEGPSGRDGPGGGQMGRCGRHVIDSTEGLSCVPPTLPWTDSEGPPGTSAKAG [KCNF1]”, 5.07; in that of “RQEGRPHCFSHPFPLLPMGRGPGCRKSSYLQELHHNLEGSSWSCEFSLYSVTIPDHLIKMLPPSIGFIELVTS [NME1]”, 9.63.
The value for RQGPPLFWTP [CDHR2] was 1.05; that for “RQGRLRGQAGGQQLQEGSDNSPPAWAHLLLLLLLGSAPQTRLWPPSQCPVTSPE [CRACR2B]” was 9.74; that for RQLQELNSLAPEELAAQEAKLAF [TMEM81] was 0.0302.
Regarding RQRPPAPALPQPSY [SART1], the median enrichment turned out to be 0.558.
RQRRD [PVR]: the median enrichment worked out at 0.306.
In the case of “RQSWCCRPIGRSWKASGCVPAMSWHWQSWRRRRANPRAQRTLRKPAGAESCVGHPTRHPSSLRRPVGRQGSRGFALLLSSRVM [RAB15]”, the median enrichment was found to be 3.13.
For “RQTSQSSQPGLHPPWLPPAHMAPSTGLQPGAREL [HOOK2]”, the median enrichment was found to be 11.1.
In the case of RQWLSCDDRQNGGEICLWEVEP [FBXO45], the median enrichment is 6.14.
For “RRAGGGWWPRRQHTTRLHTCMLSPRGNGLYIAHFTLFRRHFIPALVLLEGLSRQSSSCSASVCDSPPSTPMALSLGDSSSPRK [PRKAB1]”, the median enrichment stood at 5.36.
As for “RRGEGRPAVDSLILGRSLGCAAISFCECANTKLSRAKL [SLC25A25]”, the median enrichment worked out at 8.98.
The value for “RRINLQRSRQDDLAAWGLLSPRNSHVGFPLPGWPLDLSSKPFLTSS [CHI3L2]” was 6.12; that for RRKCLLPW [PKD1L2] was 1.93.
As for RRKEFCKETIRFVKDILHNI [PPP1CB], the median enrichment was 7.66.
Regarding RRLARKMPRGG [TRAPPC3L], the median enrichment was 5.87.
Turning to RRLSISRDMVLTQQFPVMAKCSI [IL13RA2], the median enrichment was 6.6.
RRPRAPHLSRSLMPQGAQ [SLC44A2]: the median enrichment was found to be 1.11.
The value for RRPVPR [TBC1D24] was 1.51.
For the substance RRR [Arg03], the median enrichment came out at 0.663.
For RRRR [Arg04], the median enrichment worked out at 0.344.
The value for RRRRR [Arg05] was 0.5.
On to RRRRRR [Arg06], for which the median enrichment was determined as 0.898.
In the case of “RRRRRRGRAAGGTAQATQGRPLRPGGQGGRPASGDRLPPGLWQDVPSEGYFEEPPGPGDREAPVSSMNALPRTQARASGVHSE [MSANTD1]” it was 0.682.
On to RRRRRRR [Arg07], for which the median enrichment was 0.889.
In the case of RRRRRRRR [Arg08], the median enrichment was 1.49.
Take RRRRRRRRR [Arg09]: the median enrichment amounted to 1.11.
On to RRRRRRRRRR [Arg10], for which the median enrichment amounted to 0.77.
RRSPVCPVKTEIN [TM9SF2]: the median enrichment is 0.793.
The value for “RRTACSDQRAQRPEDKSGGDSMGMGVGCLRERTHGLGRGERCMGITFARAAYLKVTVSSGTAGDRYLLLQEINYPENSTQPVT [LEXM]” was 13.9; that for RRTHRQ [ZNF397] was 1.02; that for “RRVQRTCSSLGEEAPLKNSPPGTQLQPSGQAAGRRQRQREETLALTPSRVVIFGFAHHPGLPDGTLL [C12orf49]” was 11.7.
In the case of RSAAIRWKPLEPEAAA [FXYD6] it was 12; in that of RSC [DCK], 0.415.
In the case of “RSCAAQSQTPAPTTYFCYTQEHFRKLSQLIFCFSSMSILSVSHFEDFFSLLYLCFSFFGFYFVVLSVIFNVPKICTCSIKNVV [HOOK3]” it was 3.09.
Consider RSGLFQ [IQCF1], for which the median enrichment came out at 0.394.
The value for RSGLRRRRHRGE [Degron APPBP2] was 6.28; that for RSGTGRLLIEIHLLGGTGFP [MRNIP] was 8.41; that for RSHFCQMLPSTINALGGRRGRQ [ETHE1] was 12.6.
On to RSHL [BBOX1], for which the median enrichment came to 11.7.
In the case of RSHTACSFGCD [EIF2B5], the median enrichment was 0.722.
On to RSKDNGVFFL [USP44], for which the median enrichment came out at 1.94.
The value for “RSLRAGPSAAGSCLNTSLDMARTHRDTGQDQPCLWRQDTTIWPMAVTSCRVQSQTGNHHLRQDLPASFTFLISRALPPILCLG [SLC22A13]” was 6.14; that for RSNFSFTVLSCLHRKSQYNFHC [SEC23IP] was 2.62.
As for RSNLYVLPKKPKTAFD [C2orf15], the median enrichment came to 1.27.
The value for “RSPPHLRPKGRPPPAFLTPALLPQRMWGGGGGPCGPGAQLPGTPVPGQAHLEEESLPPPKYWAALSLPRDHPSLPAMCTIMTN [GPR108]” was 3.35; that for “RSQLCSGQACSLRTLTTLDLELGTCGHSSSPGCIP [CIITA]” was 42.6.
In the case of RSRVFQVPGPWL [MYL4], the median enrichment worked out at 1.67.
The value for RSSKPTKHQKTHSQTSEHKLHG [PLCB4] was 0.191; that for “RSSPTKGPPETPGTISVSSHQTLALFLLLFGDLHCQNYQFQVNFVGEFPPPPSSGSPRSNVPPATFPLWPPAELICLSHRSWC [S100A7A]” was 7.95.
The value for RSSTRDWKDHKLKWRKDPQDT [FCGR3B] was 2.73.
In the case of RSWPPLIYSTSLAPHLH [TNFRSF6B] it was 8.26.
With RTCGRPF [CMTM1], the median enrichment is 6.49.
Take “RTDCRSWEPRHAQASAEGAAGGSARLDPWHLIKKFSLMSMVVGQPSSLSQQAHAASVTSSPAVYTGHCGPEWLGPCRSYTTGC [ZFPM1]”: the median enrichment came out at 4.58.
The value for RTF [KBTBD3] was 0.378; that for RTFATVYFKNKFKLFYHFI [ABCB4] was 7.31; that for RTILELTRFVCL [KRTAP20-1] was 7.89.
